Source: publication PMC9437899

Target: neonatal Fc receptor (FcRn) (UniProt P55899)
Assay: ELISA; pH 6.0; absorbance read with a plate reader; Kd defined as the concentration of protein that produces 50% of optimal binding response; who was immobilised is not given in the source

Chain of neonatal Fc receptor (FcRn) (P55899 24-365): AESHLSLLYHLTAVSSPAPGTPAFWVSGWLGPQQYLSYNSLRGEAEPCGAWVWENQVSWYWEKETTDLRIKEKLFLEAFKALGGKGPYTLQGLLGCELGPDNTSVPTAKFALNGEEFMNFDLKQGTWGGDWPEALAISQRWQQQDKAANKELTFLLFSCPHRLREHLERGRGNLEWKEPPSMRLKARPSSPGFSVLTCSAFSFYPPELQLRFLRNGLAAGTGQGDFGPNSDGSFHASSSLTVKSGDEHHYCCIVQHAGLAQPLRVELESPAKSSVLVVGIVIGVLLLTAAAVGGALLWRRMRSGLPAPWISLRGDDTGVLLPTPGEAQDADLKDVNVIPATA

In the case of Fc-PepH3 conjugate (Fc fusion), the Kd is reported as 95.4 nM.
